# Test results taken from the supplement of paper PMC9170038.
# Tested on: K4 kissing-loop RNA reporter
# Experiment: apparent KD of K4 kissing-loop reporter; higher = weaker reporter binding
# Settings: Eterna round: R107; input ligand: FMN 200 uM
# Method: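 RNA-MaP round R107: designed RNA switches with theophylline, tryptophan, arginine or FMN aptamers are transcribed on-chip within common flanks. They are titrated with a labelled K4 kissing-loop RNA reporter in RNA-MaP buffer (100 mM Tris pH 7.5, 80 mM KCl, 4 mM MgCl2), without ligand or with the indicated ligand. Median apparent KD per design.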
# 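Also: bound reporter read as fluorescence of individual clusters on recovered sequencing chips by microscopy, with normalized cluster intensities fitted with a binding model.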
row,Sequence,apparent KD of K4 kissing-loop reporter
1,UUAUAUUUUAUAUUUAGAUGAUCUAUAGCACGAGGACCGGUACGGCCGCCACUCGAGUGAUGUUCGAGAGCUAUAGAUCAUCAUU [AK2.2 EXC Tryptophan A],0.142 µM
2,CCUGGCGAGGUAACGUGGAUAUCUCGUCGCAAGGAUAUCUGGAAACAGAGAAGGUGCUACAUUACCGGCAGUGAUGUUGCUGACC,0.841 µM
3,AAAUAAAUGGCGGCCGCCACUGAACGCCUCCGCGUGGGUAUAUAGUGAUGUUAUAUGGCCGCCAUCAGGACCGGGCCAAAUAAAA [#08 K4 Tryptophan B Same State],0.33 µM
4,AAGGUCACUACUACAGUGAUGUUGUAGGAGCAGGAUAUGCAGAAAUGCAGAAGGGCUCGCUCCAAGUGACCGAAUGAAACAUUCA [Omei KL FMN A SS A v2],0.368 µM
5,CAUCUCAUGAAAUGAGAUGUCAUCAGUGAAGGAGCGCUAUUAGCAGCAGGUAGGUCGCACUGAAGCGGAGUGAUGUUCUGUAUGA [Arg A SS t3],0.17 µM
6,CGCAGUGAUGUUGCGAGUAGCUACAGGGAAGGAGCGCUUUAGUAAGCAGGUAGGUCGCCCACGCAGUGAUGUUGCGUCAUAGGGU [Exclusion Arginine A GF 19],0.118 µM
7,CGCUGGGCGAGUGAUGUUCGCUCACGUGAUACCAGUGCCAUCCAACACCCUUGGCAGCACGCGGGCAGUGAUGUUGUCCUUAGUG [Exclusion Theophylline A GF8],0.127 µM
8,UUUCGUUGAAGUGAUACCAGACUUGAAAGUGAUGUUUUCCAAUAAAUUAAAUUAUUAGCUGUCCCUUGGCAGCACAGUUUAUUUA [JR_ExcTheophyB_Sub006],0.205 µM
9,UAACUGCAGUGAUGUUGCAGAUGUCCUGACUAGGAUAUCAGGAAACUGAGAAGGAGUCCCUUCUAAACAUCACAGAAGGAGGACA [[K1]-[K2]-[F1]'-[F1]-[F2]-[F2]'-[K]'-[F]''_Design2],0.491 µM
10,GGUCGAGUGAUGUUCGAUGUAGUGCAUUCAGAGGAUAUAGGAUUGGCUAGAAGGCUGAAACCUUCUUCGAGUGAUGUUCGAGGAU [Same State FMN A GF5],0.13 µM
11,UAACUCUUGCAGUGAUGUUGCAAGUAAGCUCAGGAUAUCAGGAAACUGAGAAGGGAGCAUCCUGAGCUUCUGCAAGAGCUCAGAA [KL-SSFMN-A4],0.254 µM
12,CGCGUUGGUUGAGAGGUUGGCGCGAAUGAUACCAGUAUAUAAGAAUACCCUUGGCAGCAUAAGAAAGAUAUAGUGAUGUUGUAUA [SSTheophA.I],0.469 µM
13,AUUUAUUCGUACUUUCAGUGAUGUUGAUAACGAGGACCGGUACGGCCGCCACUCGAUUUGGCGAUUUUGUAUUUUUUAUUCUAUA [JR_SSTryptoA_Sub010],0.403 µM
14,UGUAUGUGAUUUGAUACCAGACCAUCUUGUGAGAAGUGAGUGAUGUUUAUUUUGGUUUGGGUCCCUUGGCAGCAAAUCGCAUACU [KL-SSTheoB23],0.777 µM
15,CCAGCAAAGCUGGUCGCCAAACAACGGGCACGAGGACCGGUACGGCCGCCACUCGUGAGGACGAGUGAUGUUCGUUCACGGGCGA,0.815 µM
16,UGAUACCAGACGGCCGCCACUUCCGCAAGUCAAAGACUUGCCAAGGGAAUCGUCCAGUGAUGUUGGAGGACCGGGUCUGGUAUCU [FiskerMod 4 - Jieux - Exclusion - Tryptophan B],0.939 µM
17,UUUUUAUGCAGUGAUGUUGCUAAUAUAACAGAGGAUAUGCAUUAAUGCAGAAGGCUGAAAUACUAUACUUUAAUAUAUUAAAUUU [JR_SSFMNA_Sub015],0.0943 µM
18,GAGCGGUAGAGGCUACCGCUAUUCUGAGAAGGAGCGCAGAUGACUGCAGGUAGGUCGCUUAGAGCUUGCAGUGAUGUUGCAAGUU [Inzarier],0.178 µM
19,UGGAUAUAGUGAUGUUAUAUAGAGAGGGAUACCAGUUUAGAGAAGAACCCUUGGCAGCCUAAAGAAGUAUCAUUAGAGAAGAAUG [ExTheophyl.An],0.37 µM
20,ACGUAGUUCUAGGAUACCAGCCAAGGAGCGCAGGACAAAAGUCCUGCCGCCAGUGAUGUUGGCCCUUGGCAGCCUAGAACUACGA [Omei KL Theo B Exc B v1],0.193 µM
21,CCAUUCUUUUACGAUACCAGUCUAAUAUAUUUAAUCAAAACCCUCGCCGAGUGAUGUUCGGACCCUUGGCAGCGUCUGCGAGAGG [ettyxtkmullin],0.606 µM
22,UCUGCAAAGUCGGCCGCCACUCCGGGCCCUAUAAAUGGGCGCAGUGAUGUUGCGGCUAGGCCUCUGAGGACCGGGACUUUGUAGA [Atlesoqu],0.0875 µM
23,GCCGUAGAUUGAAGGAGCGGGCCGUAGUGAUGUUACGCCAAGUUGUCUUUUAUUGAUGUGGCCCAGGUAGGUCGCAAUCUACGGC,0.3 µM
24,GCCGUAGAUUGAAGGAGCGUUCUUACUGAUUACGGCAGCCGGAAGUGAUGUUUCCAGGUGGAACAGGUAGGUCGCAAUCUACGGC,0.104 µM
25,GGCCGCAAGGCGAGCGCUCCCACUCCGGAAGGAGCGCCCGCAAGGGCAGGUAGGUCGCCGGAGUGAUGUUCCGGUGGAGGGCUCG [#2 Exclusion - Arginine A Attempt #16 (Inspired by Omei)],0.398 µM
26,AGAUGACAGGGAGGAUAUCCUAAUAUGGGUGAUGUUAGCGAUGUUGAAGGUGUAGUGAUGUUAUGCGGAGAAGGCCCUGUUGUUU [BDazzled - #23 - Exc. FMN B],0.0824 µM
